The results in this text go back to patent US20110305732A1.

For this assay, the target named is human Robo-1 (human) (UniProt Q9Y6N7). Briefly: cell-based or functional assay.
Sequence of UniProt Q9Y6N7 (Q9Y6N7 26-1651): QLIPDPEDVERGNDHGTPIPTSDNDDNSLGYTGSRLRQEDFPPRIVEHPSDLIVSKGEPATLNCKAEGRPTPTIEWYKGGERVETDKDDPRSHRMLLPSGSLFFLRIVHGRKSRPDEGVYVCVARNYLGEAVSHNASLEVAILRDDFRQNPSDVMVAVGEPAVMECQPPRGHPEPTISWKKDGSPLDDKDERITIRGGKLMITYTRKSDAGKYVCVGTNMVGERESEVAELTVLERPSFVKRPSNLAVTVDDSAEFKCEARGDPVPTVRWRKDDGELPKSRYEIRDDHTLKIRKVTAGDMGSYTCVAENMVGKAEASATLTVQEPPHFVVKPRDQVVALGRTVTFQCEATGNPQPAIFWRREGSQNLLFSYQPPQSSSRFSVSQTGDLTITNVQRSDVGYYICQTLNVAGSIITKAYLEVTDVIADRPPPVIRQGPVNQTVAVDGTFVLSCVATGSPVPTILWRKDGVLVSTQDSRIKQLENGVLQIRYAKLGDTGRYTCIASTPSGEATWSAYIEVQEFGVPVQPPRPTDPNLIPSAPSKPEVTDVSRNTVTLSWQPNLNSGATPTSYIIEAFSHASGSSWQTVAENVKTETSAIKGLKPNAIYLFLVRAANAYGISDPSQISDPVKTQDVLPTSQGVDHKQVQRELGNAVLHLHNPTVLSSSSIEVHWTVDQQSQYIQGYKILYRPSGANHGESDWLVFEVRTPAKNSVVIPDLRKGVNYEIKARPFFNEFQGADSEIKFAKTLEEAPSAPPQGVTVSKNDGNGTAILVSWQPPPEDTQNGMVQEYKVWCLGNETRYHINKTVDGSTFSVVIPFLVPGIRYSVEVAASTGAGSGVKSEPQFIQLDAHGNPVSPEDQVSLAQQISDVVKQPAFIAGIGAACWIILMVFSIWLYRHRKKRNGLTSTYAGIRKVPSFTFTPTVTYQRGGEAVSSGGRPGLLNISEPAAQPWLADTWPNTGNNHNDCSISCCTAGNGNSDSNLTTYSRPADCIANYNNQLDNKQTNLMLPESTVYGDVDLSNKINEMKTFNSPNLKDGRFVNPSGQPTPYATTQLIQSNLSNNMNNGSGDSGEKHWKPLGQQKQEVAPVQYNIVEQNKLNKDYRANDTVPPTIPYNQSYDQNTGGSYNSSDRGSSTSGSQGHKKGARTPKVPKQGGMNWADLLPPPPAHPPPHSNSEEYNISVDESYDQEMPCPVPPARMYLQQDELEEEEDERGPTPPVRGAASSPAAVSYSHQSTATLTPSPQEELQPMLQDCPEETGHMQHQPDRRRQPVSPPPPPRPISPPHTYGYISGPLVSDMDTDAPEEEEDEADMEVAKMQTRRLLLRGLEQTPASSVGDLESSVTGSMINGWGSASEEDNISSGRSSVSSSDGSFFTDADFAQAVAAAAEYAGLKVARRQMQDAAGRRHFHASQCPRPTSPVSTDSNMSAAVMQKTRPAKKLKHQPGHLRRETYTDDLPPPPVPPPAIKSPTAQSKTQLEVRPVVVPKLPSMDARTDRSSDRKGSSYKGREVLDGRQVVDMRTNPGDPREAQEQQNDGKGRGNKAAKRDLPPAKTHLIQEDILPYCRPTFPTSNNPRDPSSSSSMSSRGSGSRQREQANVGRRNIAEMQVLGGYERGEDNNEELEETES

B1: full length human Slit2 (ligand, UniProt O94813-3 31-1521, looked up)
chain: QCSCSGSTVDCHGLALRSVPRNIPRNTERLDLNGNNITRITKTDFAGLRHLRVLQLMENKISTIERGAFQDLKELERLRLNRNHLQLFPELLFLGTAKLYRLDLSENQIQAIPRKAFRGAVDIKNLQLDYNQISCIEDGAFRALRDLEVLTLNNNNITRLSVASFNHMPKLRTFRLHSNNLYCDCHLAWLSDWLRQRPRVGLYTQCMGPSHLRGHNVAEVQKREFVCSGHQSFMAPSCSVLHCPAACTCSNNIVDCRGKGLTEIPTNLPETITEIRLEQNTIKVIPPGAFSPYKKLRRIDLSNNQISELAPDAFQGLRSLNSLVLYGNKITELPKSLFEGLFSLQLLLLNANKINCLRVDAFQDLHNLNLLSLYDNKLQTIAKGTFSPLRAIQTMHLAQNPFICDCHLKWLADYLHTNPIETSGARCTSPRRLANKRIGQIKSKKFRCSGTEDYRSKLSGDCFADLACPEKCRCEGTTVDCSNQKLNKIPEHIPQYTAELRLNNNEFTVLEATGIFKKLPQLRKINFSNNKITDIEEGAFEGASGVNEILLTSNRLENVQHKMFKGLESLKTLMLRSNRITCVGNDSFIGLSSVRLLSLYDNQITTVAPGAFDTLHSLSTLNLLANPFNCNCYLAWLGEWLRKKRIVTGNPRCQKPYFLKEIPIQDVAIQDFTCDDGNDDNSCSPLSRCPTECTCLDTVVRCSNKGLKVLPKGIPRDVTELYLDGNQFTLVPKELSNYKHLTLIDLSNNRISTLSNQSFSNMTQLLTLILSYNRLRCIPPRTFDGLKSLRLLSLHGNDISVVPEGAFNDLSALSHLAIGANPLYCDCNMQWLSDWVKSEYKEPGIARCAGPGEMADKLLLTTPSKKFTCQGPVDVNILAKCNPCLSNPCKNDGTCNSDPVDFYRCTCPYGFKGQDCDVPIHACISNPCKHGGTCHLKEGEEDGFWCICADGFEGENCEVNVDDCEDNDCENNSTCVDGINNYTCLCPPEYTGELCEEKLDFCAQDLNPCQHDSKCILTPKGFKCDCTPGYVGEHCDIDFDDCQDNKCKNGAHCTDAVNGYTCICPEGYSGLFCEFSPPMVLPRTSPCDNFDCQNGAQCIVRINEPICQCLPGYQGEKCEKLVSVNFINKESYLQIPSAKVRPQTNITLQIATDEDSGILLYKGDKDHIAVELYRGRVRASYDTGSHPASAIYSVETINDGNFHIVELLALDQSLSLSVDGGNPKIITNLSKQSTLNFDSPLYVGGMPGKSNVASLRQAPGQNGTSFHGCIRNLYINSELQDFQKVPMQTGILPGCEPCHKKVCAHGTCQPSSQAGFTCECQEGWMGPLCDQRTNDPCLGNKCVHGTCLPINAFSYSCKCLEGHGGVLCDEEEDLFNPCQAIKCKHGKCRLSGLGQPYCECSSGYTGDSCDREISCRGERIRDYYQKQQGYAACQTTKKVSRLECRGGCAGGQCCGPLRSKRRKYSFECTDGSSFVDEVEKVVKCGCTRCVS
B1 came in with an average platelet surface area coverage on collagen at shear flow rate 1900 sec^-1 of 3.1%, an average surface area covered by platelets on collagen at shear flow rate 1000 sec^-1 of 1.3%, a mean platelet surface area on fibrinogen after 30 min (platelet spreading) of 20.9 µm^2 and a mean surface area of platelets on collagen after 30 min (platelet spreading) of 13.5 µm^2. Besides, the mean surface area of platelets on fibronectin after 30 min (platelet spreading) was found to be 19.3 µm^2, the percentage of platelets expressing cell-surface CD62P after ADP stimulation is 13.2% and the phosphorylation of Akt during platelet spreading on fibrinogen (fold over basal 1.0) (fold over basal) was determined as 2.8.
